In patent publication US20250388666A1 (BRIGHAM AND WOMEN S HOSPITAL, published 2025):
Residue numbers refer to the chain shown, from its start. In names and notes the source's numbering stands. Several values for one entry are separate records, joined by “and”; a condition that tells them apart may be missing. Equal values may be shown once.

T1: CEACAM1 (Sino Biological) (human, UniProt P13688 35-428, limits assumed)
T1 construct: may be the same as CEACAM1-HIS; also called hCEACAM1; biotinylated soluble CEACAM1
T1 sequence: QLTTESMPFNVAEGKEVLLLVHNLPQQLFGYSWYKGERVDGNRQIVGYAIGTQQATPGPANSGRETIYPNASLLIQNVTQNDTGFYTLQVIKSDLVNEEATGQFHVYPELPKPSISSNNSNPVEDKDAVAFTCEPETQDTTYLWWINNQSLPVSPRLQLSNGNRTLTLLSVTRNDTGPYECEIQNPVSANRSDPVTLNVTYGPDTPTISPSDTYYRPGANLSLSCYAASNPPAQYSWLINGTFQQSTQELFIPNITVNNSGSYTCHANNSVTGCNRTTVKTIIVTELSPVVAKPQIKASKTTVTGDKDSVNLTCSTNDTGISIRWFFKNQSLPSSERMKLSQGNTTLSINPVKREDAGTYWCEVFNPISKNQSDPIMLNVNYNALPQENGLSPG

B1: He6/Parent VL (antibody, IgG4, V domains shown)
VH: EVQLLESGGGLVQPGGSLRLSCAASGFSFSDYYLYWVRQAPGKGLEWVATISVGGGQTSYADSVKGRFTISRDNSKNTLYLQMNSLRAEDTAMYYCARARTYGPAWFAYWGQGTLVTVSS
VL: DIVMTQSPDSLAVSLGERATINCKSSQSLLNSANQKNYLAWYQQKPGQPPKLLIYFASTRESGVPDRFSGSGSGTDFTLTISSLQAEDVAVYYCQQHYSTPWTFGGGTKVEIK
notes: IgG4 S241P, kappa
B2: He9/Parent VL (antibody, IgG4, V domains shown)
VH: B1 VH with R100M, T101Y
VL: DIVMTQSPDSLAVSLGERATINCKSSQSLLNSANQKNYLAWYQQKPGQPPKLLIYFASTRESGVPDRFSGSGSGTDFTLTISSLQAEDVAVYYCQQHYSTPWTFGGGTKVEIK
notes: IgG4 S241P, kappa
B3: He13/L5 (antibody, IgG4, V domains shown)
VH: B1 VH with A97T, A99G, R100L, T101Y, A105S, F107L
VL: DIVMTQSPDSLAVSLGERATINCKSSQSLLNSANQKNYLAWYQQKPGQPPKLLIYFASTRESGVPDRFSGSGSGTDFTLTISSLQAEDVAVYYCQSHYPFAFTFGGGTKVEIK
notes: IgG4 S241P, kappa
B4: He14/L5 (antibody, IgG4, V domains shown)
VH: B1 VH with A97T, A99G, R100L, T101Y, A105S, F107V
VL: B3 VL
notes: IgG4 S241P, kappa
B5: He13/L1 (antibody, IgG4, V domains shown)
VH: B1 VH with A97T, A99G, R100L, T101Y, A105S, F107L
VL: B3 VL with A101Y, F102Y
notes: IgG4 S241P, kappa
B6: He14/L3 (antibody, IgG4, V domains shown)
VH: B1 VH with A97T, A99G, R100L, T101Y, A105S, F107V
VL: B3 VL with Y98F, A101P
notes: IgG4 S241P, kappa
B7: He13/L19 (antibody, IgG4, V domains shown)
VH: B1 VH with A97T, A99G, R100L, T101Y, A105S, F107L
VL: B3 VL with Y98I, P99Y, F100P, A101N
notes: IgG4 S241P, kappa
B8: He13/L3 (antibody, IgG4, V domains shown)
VH: B1 VH with A97T, A99G, R100L, T101Y, A105S, F107L
VL: B3 VL with Y98F, A101P
notes: IgG4 S241P, kappa
B9: He9/L18 (antibody, IgG4, V domains shown)
VH: B1 VH with R100M, T101Y
VL: B3 VL with Y98F, F100Y, A101P
notes: IgG4 S241P, kappa
B10: He9/L20 (antibody, IgG4, V domains shown)
VH: B1 VH with R100M, T101Y
VL: B3 VL with Y98F, F100Y, A101P, F102L
notes: IgG4 S241P, kappa
B11: He9/L1 (antibody, IgG4, V domains shown)
VH: B1 VH with R100M, T101Y
VL: B3 VL with A101Y, F102Y
notes: IgG4 S241P, kappa
B12: He13/L17 (antibody, IgG4, V domains shown)
VH: B1 VH with A97T, A99G, R100L, T101Y, A105S, F107L
VL: B3 VL with F100Y, A101P, F102Y
notes: IgG4 S241P, kappa
B13: He9/L16 (antibody, IgG4, V domains shown)
VH: B1 VH with R100M, T101Y
VL: B3 VL with F100Y, A101P
notes: IgG4 S241P, kappa
B14: He9/L19 (antibody, IgG4, V domains shown)
VH: B1 VH with R100M, T101Y
VL: B3 VL with Y98I, P99Y, F100P, A101N
notes: IgG4 S241P, kappa
B15: He13/L4 #1 (antibody, IgG4, V domains shown)
VH: B1 VH with A97T, A99G, R100L, T101Y, A105S, F107L
VL: B3 VL with Y98F, F100Y, A101Y, F102Y
notes: IgG4 S241P, kappa
B16: He14/L6 (antibody, IgG4, V domains shown)
VH: B1 VH with A97T, A99G, R100L, T101Y, A105S, F107V
VL: B3 VL with A101S
notes: IgG4 S241P, kappa
B17: He9/L4 #1 (antibody, IgG4, V domains shown)
VH: B1 VH with R100M, T101Y
VL: B3 VL with Y98F, F100Y, A101Y, F102Y
notes: IgG4 S241P, kappa
B18: He13/L18 (antibody, IgG4, V domains shown)
VH: B1 VH with A97T, A99G, R100L, T101Y, A105S, F107L
VL: B3 VL with Y98F, F100Y, A101P
notes: IgG4 S241P, kappa
B19: He13/L6 (antibody, IgG4, V domains shown)
VH: B1 VH with A97T, A99G, R100L, T101Y, A105S, F107L
VL: B3 VL with A101S
notes: IgG4 S241P, kappa
B20: He13/Parent VL (antibody, IgG4, V domains shown)
VH: B1 VH with A97T, A99G, R100L, T101Y, A105S, F107L
VL: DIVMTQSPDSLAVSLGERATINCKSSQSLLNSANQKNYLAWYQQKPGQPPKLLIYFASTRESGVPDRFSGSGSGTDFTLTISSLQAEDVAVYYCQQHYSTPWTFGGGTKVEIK
notes: IgG4 S241P, kappa
B21: He13/L20 (antibody, IgG4, V domains shown)
VH: B1 VH with A97T, A99G, R100L, T101Y, A105S, F107L
VL: B3 VL with Y98F, F100Y, A101P, F102L
notes: IgG4 S241P, kappa
B22: He14/L4#2 (antibody, IgG4, V domains shown)
VH: B1 VH with A97T, A99G, R100L, T101Y, A105S, F107V
VL: B3 VL with F100Y, A101P, F102Y
notes: IgG4 S241P, kappa
B23: He13/L2 (antibody, IgG4, V domains shown)
VH: B1 VH with A97T, A99G, R100L, T101Y, A105S, F107L
VL: B3 VL with A101P, F102Y
notes: IgG4 S241P, kappa
B24: He14/L2 (antibody, IgG4, V domains shown)
VH: B1 VH with A97T, A99G, R100L, T101Y, A105S, F107V
VL: B3 VL with A101P, F102Y
notes: IgG4 S241P, kappa
B25: He9/L5 (antibody, IgG4, V domains shown)
VH: B1 VH with R100M, T101Y
VL: B3 VL
notes: IgG4 S241P, kappa
B26: He13/L16 (antibody, IgG4, V domains shown)
VH: B1 VH with A97T, A99G, R100L, T101Y, A105S, F107L
VL: B3 VL with F100Y, A101P
notes: IgG4 S241P, kappa
B27: He14/L4 #1 (antibody, IgG4, V domains shown)
VH: B1 VH with A97T, A99G, R100L, T101Y, A105S, F107V
VL: B3 VL with Y98F, F100Y, A101Y, F102Y
notes: IgG4 S241P, kappa
B28: He9/L2 (antibody, IgG4, V domains shown)
VH: B1 VH with R100M, T101Y
VL: B3 VL with A101P, F102Y
notes: IgG4 S241P, kappa
B29: He13/L4#2 (antibody, IgG4, V domains shown)
VH: B1 VH with A97T, A99G, R100L, T101Y, A105S, F107L
VL: B3 VL with F100Y, A101P, F102Y
notes: IgG4 S241P, kappa

Biological target: T1, CEACAM1 (Sino Biological)
Assay: SPR single-cycle
Method: To assess the binding of the humanized affinity matured IgGs, single cycle kinetics analysis was performed on crude supernatants using a Biacore T200 running Biacore T200 Control Software V2.0.1 and Biacore T200 Evaluation Software V3.0 (Uppsala, Sweden). Antibodies were diluted in HBS-P+ (GE Healthcare) to a final concentration of […]. At the start of each cycle, antibodies were loaded onto Fc2, Fc3 and Fc4 of the Protein A chip (GE Healthcare). IgGs were captured at a flow rate of 10 μl/min to give an immobilization level (RL) of ˜100 RU (a level calculated to obtain an Rmax of ˜50-150 RU once the analyte is bound). The surface was then allowed to stabilize. Single cycle kinetics data was obtained with CEACAM1 as the analyte at a flow rate of […] to minimize any potential mass transfer effects. Multiple repeats with the parent (VH2 N56Q/Vκ4 S27(f)A) antibody were performed to check the stability of the surface and analyte over the kinetic cycles. The signal from the reference channel Fc1 (no antibody) was subtracted from that of Fc2, Fc3 and Fc4 to correct for differences in non-specific binding to the reference surface. A three point, two-fold dilution range from 25 nM to 100 nM CEACAM 1 without regeneration between each concentration was used. The signal from each antibody blank run (no CEACAM1) was subtracted to correct for differences in surface stability. The association phase for the three injections of increasing concentrations of CEACAM1 was monitored for 200 seconds each time and a single dissociation phase was measured for 300 seconds following the last injection of CEACAM1. Regeneration of the Protein A surface was conducted using two injections of 10 mM glycine-HCL pH 1.5 followed by a stabilization period of 240 seconds.

Row | Binder | Kd | fold better than Parent (KD) [fold]
1 | B1 | 125 nM | 1.27
2 | B2 | 262 nM | 0.61
3 | B3 | 95 nM | 1.68
4 | B4 | 102 nM | 1.56
5 | B5 | 126 nM | 1.26
6 | B6 | 107 nM | 1.49
7 | B7 | 129 nM | 1.23
8 | B8 | 108 nM | 1.47
9 | B9 | 36 nM | 4.4
10 | B10 | 44 nM | 3.61
11 | B11 | 69 nM | 2.32
12 | B12 | 372 nM and 159 nM | –
13 | B13 | 32 nM | 5.05
14 | B14 | 193 nM | 0.82
15 | B15 | 115 nM | 1.38
16 | B16 | 111 nM | 1.43
17 | B17 | 78 nM | 2.05
18 | B18 | 103 nM | 1.54
19 | B19 | 105 nM | 1.51
20 | B20 | 91 nM | 1.74
21 | B21 | 109 nM | 1.46
22 | B22 | 396 nM | 1.39
23 | B23 | 98 nM | 1.62
24 | B24 | 102 nM | 1.56
25 | B25 | 44 nM | 3.61
26 | B26 | 105 nM | 1.51
27 | B27 | 93 nM | 1.7
28 | B28 | 70 nM | 2.27
29 | B29 | 289 nM | 1.91
